{"source": "the PETadex activity labels (doi:10.1016/s0021-9258(17)37371-4)", "proteins": {"B1": {"name": "unnamed (protein)", "chain": "MRPPQCLLHTPSLASPLLLLLLWLLGGGVGAEGREDAELLVTVRGGRLRGIRLKTPGGPVSAFLGIPFAEPPMGPRRFLPPEPKQPWSGVVDATTFQSVCYQYVDTLYPGFEGTEMWNPNRELSEDCLYLNVWTPYPRPTSPTPVLVWIYGGGFASGASSLDVYDGRFLVQAERTVLVSMNYRVGAFGFLALPGSREAPGNVGLLDQRLALQWVQENVAAFGGDPTSVTLFGESAGAASVGMHLLSPPSRGLFHRAVLQSGAPNGPWATVGMGEARRRATQLAHLVGCPPGGTGGNDTELVACLRTRPAQVLVNHEWHVLPQESVFRFSFVPVVDGDFLSDTPEALINAGDFHGLQVLVGVVKDEGSYFLVYGAPGFSKDNESLISRAEFLAGVRVGVPQVSDLAAEAVVLHYTDWLHPEDPARLREALSDVVGDHNVVCPVAQLAGRLAAQGARVYAYVFEHRASTLSWPLWMGVPHGYEIEFIFGIPLDPSRNYTAEEKIFAQRLMRYWANFARTGDPNEPRDPKAPQWPPYTAGAQQYVSLDLRPLEVRRGLRAQACAFWNRFLPKLLSATDTLDEAERQWKAEFHRWSSYMVHWKNQFDHYSKQDRCSDL"}, "B2": {"name": "unnamed (protein)", "chain": "B1 chain with A155Y, Y368F"}, "B3": {"name": "unnamed (protein)", "chain": "B1 chain with A155Y, F369A"}, "B4": {"name": "unnamed (protein)", "chain": "B1 chain with A155Y, W317A"}, "B5": {"name": "unnamed (protein)", "chain": "B1 chain with W117A, A155Y"}, "B6": {"name": "unnamed (protein)", "chain": "B1 chain with Y103A"}, "B7": {"name": "unnamed (protein)", "chain": "B1 chain with A155Y"}, "B8": {"name": "unnamed (protein)", "chain": "B1 chain with E316A, W317A"}}, "note": "Where a chain is given by its changes, count along the chain named."}
{"substrate": "Acetylcholine", "conditions": "pH 8; 27 °C", "units": {"Km": "µM", "kcat": "s⁻¹", "kcat/Km": "M⁻¹ s⁻¹"}}
{"protein": "B1", "Km": 250, "kcat": 4170, "kcat/Km": "1.67e+07"}
{"protein": "B2", "Km": 160, "kcat": 6670, "kcat/Km": "4.17e+07"}
{"protein": "B3", "Km": 140, "kcat": 2830, "kcat/Km": "2.02e+07"}
{"protein": "B4", "Km": 200, "kcat": 5330, "kcat/Km": "2.67e+07"}
{"protein": "B5", "Km": 93000, "kcat": 1330, "kcat/Km": 14300}
{"protein": "B6", "Km": 70, "kcat": 4170, "kcat/Km": "5.95e+07"}
{"protein": "B7", "Km": 120, "kcat": 7000, "kcat/Km": "5.83e+07"}
{"protein": "B8", "Km": 280, "kcat": 2330, "kcat/Km": "8.33e+06"}
